In patent publication US20160244745A1 (published 2016):

Experiments:
Experiment in all cases: yeast display titration; KD, yeast
Lysozyme = molecular target: Lysozyme
Goat IgG = molecular target: Goat IgG
Rabbit IgG = molecular target: Rabbit IgG

Work on KFWATVFSYGNLFEVPVYAETLDEALELAEWQYSGAYEYVTRVRP (designed binder) [Lysozyme A0.3.2] yielded a Kd (Lysozyme) of ~1550 nM.

Binder KFWATVYDYDADYYFEVPVYAETLDEALELAVWRYYSNHSDYLVTRVRP (designed binder) [Goat IgG 2.2.1] has a Kd (Goat IgG) of 0.2 nM.

KFWATVHSVHGYFEVPVYAETLDEALELAFGQYGNALGYVTRVRP (designed binder) [Rabbit IgG 3.2.3] gave a Kd (Rabbit IgG) of 1.5 nM.
